Assay results: US20140030295A1

Target: Full-length human SIRT1 (His-tagged) (human) (UniProt Q96EB6)
Experiment: cell-based or functional assay

Full-length human SIRT1 (His-tagged) (human), sequence (Q96EB6 2-747): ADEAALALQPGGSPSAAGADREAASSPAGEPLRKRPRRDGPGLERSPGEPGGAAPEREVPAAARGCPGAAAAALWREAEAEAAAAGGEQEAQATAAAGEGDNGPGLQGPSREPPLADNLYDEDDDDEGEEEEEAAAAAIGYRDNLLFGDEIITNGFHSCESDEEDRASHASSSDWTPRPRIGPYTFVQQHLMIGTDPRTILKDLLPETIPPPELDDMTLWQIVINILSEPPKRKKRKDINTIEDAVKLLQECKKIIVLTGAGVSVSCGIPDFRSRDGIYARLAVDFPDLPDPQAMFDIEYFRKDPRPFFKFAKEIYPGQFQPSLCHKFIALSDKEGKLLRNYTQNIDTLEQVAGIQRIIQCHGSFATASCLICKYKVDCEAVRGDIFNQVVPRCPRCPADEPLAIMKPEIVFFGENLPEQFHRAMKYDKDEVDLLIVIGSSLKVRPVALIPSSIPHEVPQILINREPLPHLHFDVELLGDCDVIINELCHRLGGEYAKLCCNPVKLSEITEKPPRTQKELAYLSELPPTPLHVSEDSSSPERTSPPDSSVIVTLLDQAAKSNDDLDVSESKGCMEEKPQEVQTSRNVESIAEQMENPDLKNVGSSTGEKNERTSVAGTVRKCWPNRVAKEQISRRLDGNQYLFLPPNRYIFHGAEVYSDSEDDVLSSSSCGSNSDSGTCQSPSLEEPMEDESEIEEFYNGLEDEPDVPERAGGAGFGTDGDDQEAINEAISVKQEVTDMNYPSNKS

synthetic Tat (aa 1-72)
Tat concentration required for half maximal inhibition (IC50) of SIRT1; fluorescent deacetylation assay with acetylated p53 peptide (aa 379-382): 3.5 µM
